# Data reported in paper PMC10598736, “Structural insights into Rad18 targeting by the SLF1 BRCT domains” (The Journal of Biological Chemistry, 2023).
# B1: SLF1 tandem BRCT repeat (SLF1^tBRCT), residues 1-199, wild type (domain or fragment, UniProt Q9BQI6 1-199, looked up)
# chain: MEDGTPKHIIQMTGFKMEEKEALVKLLLKLDCTFIKSEKYKNCTHLIAERLCKSEKFLAACAAGKWILTKDYIIHSAKSGRWLDETTYEWGYKIEKDSRYSPQMQSAPKRWREELKRTGAPGAFHRWKVVLLVRTDKRSDSLIRVLEAGKANVILPKSSPSGITHVIASNARIKAEKEKDNFKAPFYPIQYLGDFLLEK
# notes: SMC5/6 localization factor 1 (SLF1), tandem BRCT repeat at the N-terminus, residues 1-199; coding region optimized for E. coli and synthesized; also called WT; SMC5/6 localization factor 1 tBRCT; source: E. coli BL21 Rosetta (DE3), purified (Ni-NTA, heparin, gel filtration)
# Legend:
# [1] = biological target: T1, full-length Rad18 S442E, strep-his-sumo-tagged (human, UniProt Q9NS91 1-495, S442E); experiment: pull-down; his-strep-sumo-tagged Rad18 (50 μg) held on streptactin beads, incubated with 50 μg SLF1^tBRCT at 4 °C for 60 min; 20 mM Tris (pH 7.5), 200 mM sodium chloride, 2 mM DTT; eluted with D-desthiobiotin, SDS PAGE; details: both partners purified
# T1 construct: Rad18, human, with the phosphomimetic S442E; also called S442E-substituted Rad18; source: E. coli BL21 Rosetta (DE3), purified (same protocol as the wild type); not shown: Strep, N-terminal, kept; His, N-terminal, kept; SUMO, N-terminal, kept
# T1 sequence (Q9NS91 whole entry S442E): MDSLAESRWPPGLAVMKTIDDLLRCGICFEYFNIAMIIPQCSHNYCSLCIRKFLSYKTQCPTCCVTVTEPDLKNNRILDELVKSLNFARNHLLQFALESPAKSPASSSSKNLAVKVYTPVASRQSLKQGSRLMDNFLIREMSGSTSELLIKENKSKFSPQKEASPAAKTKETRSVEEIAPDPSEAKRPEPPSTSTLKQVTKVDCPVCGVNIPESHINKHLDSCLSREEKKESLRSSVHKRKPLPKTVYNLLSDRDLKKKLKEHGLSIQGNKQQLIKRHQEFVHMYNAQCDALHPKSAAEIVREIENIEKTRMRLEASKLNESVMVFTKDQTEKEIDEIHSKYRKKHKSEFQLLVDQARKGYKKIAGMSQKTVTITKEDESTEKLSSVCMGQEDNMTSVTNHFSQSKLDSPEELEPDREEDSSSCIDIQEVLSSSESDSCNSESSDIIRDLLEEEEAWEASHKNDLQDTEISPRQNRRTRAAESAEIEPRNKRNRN
# [2] = biological target: T2, full-length Rad18 S442E/S444E (2SE), strep-his-sumo-tagged (human, UniProt Q9NS91 1-495, S442E | S444E); experiment: as above; details: both partners purified
# T2 construct: Rad18, human, with the phosphomimetics S442E/S444E; also called S442E/S444E (2SE)-substituted Rad18; source: E. coli BL21 Rosetta (DE3), purified (same protocol as the wild type); not shown: Strep, N-terminal, kept; His, N-terminal, kept; SUMO, N-terminal, kept
# T2 sequence (Q9NS91 whole entry S442E/S444E): as the sequence (Q9NS91 whole entry S442E) above, with S444E counted along it
binder,measurement,setting,value
B1,binding result,[1],binds
same,binding result,[2],binds
